Experimental data as given in the supplement of paper PMC9112550, “Optimization of the antimicrobial peptide Bac7 by deep mutational scanning” (BMC Biology, 2022).

Each sequence was assayed on Escherichia coli TOP10 (assay: shrunken log2 fold change of peptide-encoding DNA abundance (4.5 h post-induction vs induction); higher = less antimicrobial activity (less host growth inhibition)). Conditions: time post-induction: 4.5 h; library: site-saturation at positions 5, 18, 19, 20.
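Also: peptides expressed intracellularly from a pBAD plasmid library in pooled LB shake-flask culture, induced with 0.3% L-arabinose, DNA abundance read by NGS, three biological replicates, DESeq2 with apeglm shrinkage.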

Sequence	shrunken log2 fold change
RRIRQRPPRLPRPRPRPYTKPRP	-0.111
RRIRQRPPRLPRPRPRPYTSPRP	-0.0321
RRIRQRPPRLPRPRPRPYTYPRP	-0.157
RRIRQRPPRLPRPRPRPYVWPRP	-0.00378
RRIRQRPPRLPRPRPRPYWNPRP	-1.21
RRIRQRPPRLPRPRPRPYWRPRP	0.0113
RRIRQRPPRLPRPRPRPYYIPRP	-0.657
RRIRRRPPRLPRPRPRPAAMPRP	0.516
RRIRRRPPRLPRPRPRPAAPPRP	0.922
RRIRRRPPRLPRPRPRPAATPRP	0.335
RRIRRRPPRLPRPRPRPAAYPRP	0.585
RRIRRRPPRLPRPRPRPADNPRP	0.111
RRIRRRPPRLPRPRPRPAECPRP	-0.00699
RRIRRRPPRLPRPRPRPAFGPRP	0.348
RRIRRRPPRLPRPRPRPAFLPRP	-0.0132
RRIRRRPPRLPRPRPRPAHRPRP	-0.059
RRIRRRPPRLPRPRPRPAIGPRP	0.136
RRIRRRPPRLPRPRPRPAIPPRP	-0.0158
RRIRRRPPRLPRPRPRPAIQPRP	0.561
RRIRRRPPRLPRPRPRPAIRPRP	-0.0892
RRIRRRPPRLPRPRPRPAISPRP	-0.0296
RRIRRRPPRLPRPRPRPAKGPRP	-0.0594
RRIRRRPPRLPRPRPRPALPPRP	0.48
RRIRRRPPRLPRPRPRPALRPRP	0.648
RRIRRRPPRLPRPRPRPAMRPRP	0.538

Sequence	shrunken log2 fold change
RRIRRRPPRLPRPRPRPAMYPRP	-0.145
RRIRRRPPRLPRPRPRPANAPRP	0.055
RRIRRRPPRLPRPRPRPANKPRP	0.0263
RRIRRRPPRLPRPRPRPANWPRP	0.387
RRIRRRPPRLPRPRPRPAPFPRP	0.863
RRIRRRPPRLPRPRPRPAPWPRP	0.626
RRIRRRPPRLPRPRPRPAQDPRP	0.349
RRIRRRPPRLPRPRPRPARRPRP	0.546
RRIRRRPPRLPRPRPRPASDPRP	-0.0475
RRIRRRPPRLPRPRPRPASRPRP	0.202
RRIRRRPPRLPRPRPRPATAPRP	0.479
RRIRRRPPRLPRPRPRPATKPRP	0.0529
RRIRRRPPRLPRPRPRPAVIPRP	0.00992
RRIRRRPPRLPRPRPRPAVTPRP	-0.111
RRIRRRPPRLPRPRPRPAWQPRP	0.561
RRIRRRPPRLPRPRPRPAWTPRP	1.74
RRIRRRPPRLPRPRPRPAWYPRP	0.176
RRIRRRPPRLPRPRPRPCCDPRP	0.583
RRIRRRPPRLPRPRPRPCCFPRP	0.151
RRIRRRPPRLPRPRPRPCCIPRP	-0.179
RRIRRRPPRLPRPRPRPCCTPRP	-0.0151
RRIRRRPPRLPRPRPRPCDGPRP	0.0965
RRIRRRPPRLPRPRPRPCESPRP	0.0471
RRIRRRPPRLPRPRPRPCEWPRP	-0.0585
RRIRRRPPRLPRPRPRPCFIPRP	-0.127

Sequence	shrunken log2 fold change
RRIRRRPPRLPRPRPRPCFPPRP	0.592
RRIRRRPPRLPRPRPRPCHKPRP	0.153
RRIRRRPPRLPRPRPRPCHNPRP	-0.278
RRIRRRPPRLPRPRPRPCHPPRP	-0.0611
RRIRRRPPRLPRPRPRPCIWPRP	0.0382
RRIRRRPPRLPRPRPRPCLFPRP	-0.0047
RRIRRRPPRLPRPRPRPCLKPRP	-0.184
RRIRRRPPRLPRPRPRPCMDPRP	-0.229
RRIRRRPPRLPRPRPRPCMKPRP	-0.0288
RRIRRRPPRLPRPRPRPCMYPRP	-0.0801
RRIRRRPPRLPRPRPRPCNEPRP	-0.0323
RRIRRRPPRLPRPRPRPCPIPRP	0.0892
RRIRRRPPRLPRPRPRPCQIPRP	-0.211
RRIRRRPPRLPRPRPRPCQKPRP	0.0185
RRIRRRPPRLPRPRPRPCQLPRP	-0.231
RRIRRRPPRLPRPRPRPCQPPRP	-0.0346
RRIRRRPPRLPRPRPRPCRPPRP	0.0965
RRIRRRPPRLPRPRPRPCSRPRP	0.00396
RRIRRRPPRLPRPRPRPCSWPRP	-0.124
RRIRRRPPRLPRPRPRPCWTPRP	-0.13
RRIRRRPPRLPRPRPRPCYEPRP	0.107
RRIRRRPPRLPRPRPRPDAPPRP	0.888
RRIRRRPPRLPRPRPRPDDKPRP	0.0703
RRIRRRPPRLPRPRPRPDDNPRP	0.18
RRIRRRPPRLPRPRPRPDEAPRP	0.376
